How the values were obtained:
[1] = tested on: anti-Pfs230 human monoclonal antibodies; test: Western blotting of purified Pfs230D1+ with anti-Pfs230 human monoclonal antibodies; assay type: binding; conditions: Western blot, 10 μg/mL antibody, 20 ng protein per lane, non-reducing conditions
Method: Samples were diluted with 4×LDS (Lithium dodecyl sulfate, Invitrogen) sample buffer, heated for 5 min at 90° C. and loaded in a final volume of 20 μL/well on SDS-PAGE gels (4-12% NuPAGE Bis-Tris, Invitrogen). Gels were run at 150-200 V for 35-50 min in 1×2-(N-morpholino) ethanesulfonic acid (MES) sodium dodecyl sulfate (SDS) running buffer and stained with SimplyBlue™ SafeStain (Invitrogen).
Following SDS-PAGE, proteins were transferred onto nitrocellulose membrane and Western blot procedure using anti-Pfs230 human monoclonal antibodies (non patent related). The human monoclonal antibodies were tested for reactivity at 10 μg/mL to 20 ng of Pfs230D1+(non-tagged or tagged) loaded per lane. A secondary goat anti-human antibody was used at 1/2000 dilution followed by development with BCIP/NBT substrate.

P. falciparum NF54 line = test: Rat immunization, ELISA of antiserum and standard membrane feeding assay (SMFA) of purified IgG; assay type: in vivo, Plasmodium falciparum; conditions: SD rats i.m., 20 μg antigen with composition of Example 6 as adjuvant; 250 ug/mL total IgG with complement in SMFA
Method: SD rats (Charles River Laboratories Japan) were immunized intramuscularly (i.m.) in the thigh muscles of the hind limb with 50 μL of a vaccine formulation consisting of 20 μg of an antigen, tagged Pfs230D1+ or non-tagged Pfs230D1+, and 8110 μg of the composition of Example 6 as an adjuvant (which corresponded to 10 μg of Compound A); 20 μg of tagged Pfs230D1+ alone for FIG. 2 or 20 μg of tagged Pfs230D1+ and 8110 μg of the composition of Example 6 for FIG. 5; or 8110 μg of the composition of Example 6 alone as a control. Rats received two or three injections on day 0 and 21 or day 0, 21, and 42. On day 42 or 56, rats were sacrificed, and blood was collected. After collection of the whole blood, the blood allowed to clot by leaving it undisturbed at room temperature for 4 hours. The clot was removed by centrifuging at 2,000×g for 10 minutes in a refrigerated centrifuge.
For the sera on day 42 or 56, the antibody levels against corresponding proteins were determined individually by ELISA (FIG. 2a for tagged Pfs230D1+, FIG. 5a for non-tagged Pfs230D1+).
For each group, an equal amount of serum from each rat was pooled regardless of ELISA units. […]
The standardized methodology for performing the SMFA is known in the art. […] Only midguts from mosquitoes with any eggs in their ovaries at the time of dissection were analysed (FIG. 2b for tagged Pfs230D1+, FIG. 5b for non-tagged Pfs230D1+). […]

| Molecule | reactivity to anti-Pfs230 monoclonal antibodies [1] | reactivity to anti-Pfs230 monoclonal antibodies ([1]; listed as Pfs230D1+ containing histidine-tag) | induction of functional antibodies (ELISA units, transmission reducing activity in SMFA) (P. falciparum NF54 line) | reactivity to anti-Pfs230 monoclonal antibodies ([1]; listed as Non-tagged Pfs230D1+) |
| --- | --- | --- | --- | --- |
| tagged Pfs230D1+: N-terminal Pfs230 fragment (aa 552-731, N585Q) with C-terminal six histidine tag, SEQ ID NO: 2 (protein, C-terminal His6 tag; Pfs230D1+) DVGVDELDKIDLSYETTESGDTAVSEDSYDKYASQNTNKEYVCDFTDQLKPTESGPKVKKCEVKVNEPLIKVKIICPLKGSVEKLYDNIEYVPKKSPYVVLTKEETKLKEKLLSKLIYGLLISPTVNEKENNFKEGVIEFTLPPVVHKATVFYFICDNSKTEDDNKKGNRGIVEVYVEPYGHHHHHH | reacted under non-reducing conditions | reacted to two conformational dependent anti-Pfs230 monoclonal antibodies | induced functional antibodies in rats |  |
| non-tagged Pfs230D1+: N-terminal Pfs230 fragment (aa 552-731, N585Q) without C-terminal tag, SEQ ID NO: 1 (protein, Pfs230D1+) DVGVDELDKIDLSYETTESGDTAVSEDSYDKYASQNTNKEYVCDFTDQLKPTESGPKVKKCEVKVNEPLIKVKIICPLKGSVEKLYDNIEYVPKKSPYVVLTKEETKLKEKLLSKLIYGLLISPTVNEKENNFKEGVIEFTLPPVVHKATVFYFICDNSKTEDDNKKGNRGIVEVYVEPYG | reacted under non-reducing conditions |  | induced functional antibodies in rats | reacted to two conformational dependent anti-Pfs230 monoclonal antibodies |
